Test results as given in US20170306002A1 (UNITED STATES OF AMERICA AS REPESENTED BY THE SECRETARY …, published 2017).

Biological target: recombinant CA/09 NA protein (baculovirus, with N-terminal His-tag, tetramerization domain and thrombin site) (human; influenza A virus …, UniProt P50552 336-380)
Sequence (P50552 336-380): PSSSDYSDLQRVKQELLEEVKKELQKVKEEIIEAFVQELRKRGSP

B1: mAb CD6 (whole IgG) (antibody, V domains shown)
VH: QVKLQESGGGLVQPKGSLKLSCAASGFTFNTYAMNWVRQAPGKGLEWVARIRSKSNNYATFYADSVKDRFTISRDDSQSMLYLQMHNLKTDDTAMYYCVRPSIYYYASGYLDVWGAGTTVTVSS
VL: QIVLSQSPAILSASPGEKVTMTCRTSSSVSYMHWYQQKPGSSPKPWIYATSNLASGVPFRFSGSGSGTSYSLTISRVEAEDAATYYCQQWNSNPPTFGGGTKLEIKR
Which Kd does the source give for B1 here?
The Kd was ~95 nM.
